We go through one molecule from patent US20240190964A1 (KYMAB, published 2024).

The target of this experiment is T1, human ICOS (inducible T-cell co-stimulator) (human, UniProt Q9Y6W8 21-199).
T1 construct: also called the ICOS receptor
T1 sequence: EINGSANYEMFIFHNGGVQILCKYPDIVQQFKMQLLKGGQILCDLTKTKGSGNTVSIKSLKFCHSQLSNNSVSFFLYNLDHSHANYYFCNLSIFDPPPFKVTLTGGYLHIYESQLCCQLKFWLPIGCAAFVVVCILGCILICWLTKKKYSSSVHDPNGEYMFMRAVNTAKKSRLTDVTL
Description: ICOS receptor occupancy (free ICOS detection) on peripheral CD4 memory T cells in longitudinal PBMC samples, chipcytometry, patient dosed with KY1044 in vivo.

B1: KY1044 (aka STIM003), fully human IgG1 anti-ICOS antibody (antibody, V domains shown)
VH: EVQLVESGGGVVRPGGSLRLSCVASGVTFDDYGMSWVRQAPGKGLEWVSGINWNGGDTDYSDSVKGRFTISRDNAKNSLYLQMNSLRAEDTALYYCARDFYGSGSYYHVPFDYWGQGILVTVSS
VL: EIVLTQSPGTLSLSPGERATLSCRASQSVSRSYLAWYQQKRGQAPRLLIYGASSRATGIPDRFSGDGSGTDFTLSISRLEPEDFAVYYCHQYDMSPFTFGPGTKVDIKR
In the case of B1, the binding result is “binds”.
